{"source": "patent US11285285B2", "about": "“Systems and methods comprising a droplet delivery device and a breathing assist device for therapeutic treatment” (PNEUMA RESPIRATORY, INC., priority 2016, dated 2022)", "assay_type_in_all_cases": "physicochemical", "key": {"[1]": {"test": "Anderson Cascade Impactor testing of Albuterol sulfate aerosol from the droplet delivery device (Example B)", "details": "Albuterol 0.5%, 28.3 lpm, 10 actuations", "experimental": "Droplet size distribution and related functionality was evaluated for exemplary droplet delivery devices of the disclosure, including Anderson Cascade Impactor testing, total drug mass output rates, total drug respirable mass, delivery efficiencies and reproducibility.\nThe study was designed to evaluate device performance of a single Pneuma™ inhaler. A series of three (3) individual tests were conducted with a new disposable drug cartridge for each test. The testing platform utilizes an eight-stage nonviable Anderson Cascade Impactor (Thermo Fisher Scientific; Waltham, Mass.) equipped with a calibrated AALBORG model GFM47 mass flow meter (AALBORG Instruments and Controls; Orangeburg, N.Y.) for flow rate measurement.\nAt the conclusion of each test, the mouthpiece was rinsed with mobile phase and collected for HPLC analysis to determine the mass fraction of non-respirable aerosolized drug captured in the mouthpiece via inertial filtering. Following each test, impactor stage samples were extracted and recovered in solvent and analyzed for the active pharmaceutical ingredient (API) using a Dionex Ultimate 3000 nano-HPLC with UV detection (Thermo Scientific, Sunnyvale, Calif.).\nThe cascade impactor testing procedure involved fitting the mouthpiece into the Impactor USP throat with a mouthpiece connection seal. The vacuum pump supplying sample air flow to the cascade impactor was turned on and the pump control valves adjusted to supply 28.3 L/min total flow through the impactor and inhaler body during aerosol tests.\nThe device was connected to the impactor USB throat, turned on, and actuated ten (10) times for each test. At the conclusion of the test period, the device, impactor, and dilution air sources were turned off. The i mouthpiece was rinsed in order to extract drug, and all stages of the cascade impactor were rinsed with a quantity of appropriate solvent (HPLC mobile phase). Extracted samples were placed in labeled and sterile HPLC vials, capped, and analyzed for drug content via HPLC with UV detection. The mouthpiece was extracted of residual drug and analyzed for drug content via HPLC to measure mouthpiece drug deposition in relation to the total collected on the impactor stages.\nAll system flow rates and impactor sample flows were monitored throughout each test period. Following each test, the impactor slides were placed in labeled sterile Petri dishes, and impactor stages were extracted of drug using 2 ml of mobile phase applied with a calibrated micropipette. All extracted samples from the mouthpiece and impactor were placed in labeled sterile amber HPLC sample vials, and stored refrigerated at approximately 2° C. until HPLC analysis.\nImpactor collection stages for all tests were rinsed with DI water and ethanol, and air dried prior to each inhaler test trial to avoid contamination. A new inhaler drug cartridge was used for each of the three individual tests.\nAll drug content analysis was performed using a Dionex Ultimate 3000 nano-HPLC equipped with a Dionex UVD-3000 multi-wavelength UV/VIS Detector using a micro flow cell (75 um×10 mm path length, total analytical volume 44.2 nl). […] Total HPLC run time was 6 minutes per sample with approximately 5 minutes flush between each sample. Sample injection was performed with a 1 μl sample loop in full loop injection mode.\nBuffer formulation contains reverseosmosis filtered deionized water with 1.13 gr of sodium 1-hexanesulfonate (Alfa Aesar) in 1200 ml of water, with 2 ml glacial acetic acid (Acros Organics) added. The mobile phase solution was mixed and filtered through a 0.45 um filter membrane. The final mobile phase is a 60:40 dilution of Buffer:MEOH."}, "[2]": {"test": "Insulin stability after aerosol generation, size exclusion chromatography (SEC)", "excerpt": "Size Exclusion Chromatography (SEC): Alternately, to determine the stability of active agent after droplet generation, the generated stream of droplets including the active agent may be collected and SEC-HPLIC may be employed to monitor for any changes in large molecule aggregation and protein fragment content. Soluble protein aggregates and protein fragment content may be calculated by comparing respective peak area under the SEC-HPLC curve of dispensed protein solutions with controls (solutions remaining in the device reservoir).\nDrug solutions for testing include Enbrel, (ENBREL® single-use prefilled syringes in 25 mg (0.51 mL of a 50 mg/mL solution of etanercept), and insulin, (Humalog, 200 units/ml, 3 ml kwikpens)\nTo calculate and compare effects of droplet generation through an ejector mechanism of the disclosure, the total area under the curve of the UV signal at 280 nm versus elution time for controls is compared with the aerosolized samples, which is set to 100%.\nAerosol collection and SEC is performed in a similar fashion as for the Enbrel analysis and aerosol collection.\nFifty microliters of the collected aerosol spray is injected onto the SEC column for analysis, while 50 mcl of the Kwikpen insulin solution is injected onto the SEC column for control samples."}, "[3]": {"test": "Gel electrophoresis of active agent after droplet generation", "excerpt": "Gel Electrophoresis: To determine the stability of active agent after droplet generation, the generated stream of droplets including the active agent is collected and the molecular weight of the active agent is verified using gel electrophoresis."}, "[4]": {"test": "Enbrel stability after aerosol generation, size exclusion chromatography (SEC)", "excerpt": "Size Exclusion Chromatography (SEC): Alternately, to determine the stability of active agent after droplet generation, the generated stream of droplets including the active agent may be collected and […] may be employed to monitor for any changes in large molecule aggregation and protein fragment content. Soluble protein aggregates and protein fragment content may be calculated by comparing respective peak area under the SEC-HPLC curve of dispensed protein solutions with controls (solutions remaining in the device reservoir). Drug solutions for testing include Enbrel, (ENBREL® single-use prefilled syringes in 25 mg (0.51 mL of a 50 mg/mL solution of etanercept), and insulin, (Humalog, 200 units/ml, 3 ml […] is performed with a YarraTM 3 um SEC-2000 LC column 300×7.8 mm, SecurityGuard cartridge kit and SecurityGuard cartridges GFC-2000, 4×3 mm ID. Fifty microliters of Enbrel from the syringe (ENBREL® single-use prefilled syringes in 25 mg/0.51 mL of a 50 mg/mL solution of etanercept) is diluted (4:1) (4 parts, 200 mcl of the mobile phase buffer solution to 1 part, 50 mcl Enbrel from syringe). Fifty microliter of the diluted Enbrel is injected and separation was performed at a flow rate of 1.0 ml/min. The mobile phase buffer system included a PHOS. BUFF. SALINE. […] UV detection is performed at 280 nm. […] An ampule/cartridge is filled with either 0.20 ml of Enbrel® (50 mg/ml) diluted 4:1 (10 mg/ml)(4 parts (200 mcl) of PBS and 0.025% NaN3 and 1 part (50 mcl of Enbrel solution from the syringe). After 20 actuations and aerosolization, about 150 mcl of the aerosolized Enbrel solution is recovered and collected in the polypropylene tube located below the ejector mechanism. The control consists of the diluted Enbrel solution, 50 mcl of which is injected into the SEC column for analysis."}, "[5]": {"details": "average of Aerosolized S1 and S2"}, "[6]": {"details": "control (diluted Enbrel 10 mg/ml, not aerosolized), SEC UV 280 nm"}}, "data": [{"substance": "Albuterol sulfate", "values": [{"measurement": "Fine Particles (<0.4 um)", "setting": "[1]; Anderson Cascade", "result": 31.0, "unit": "µg"}, {"measurement": "Fine Particule Fraction (<0.4 um)", "setting": "[1]; Anderson Cascade", "result": 3.5, "unit": "%"}, {"measurement": "droplets of an average diameter of less than about 4 μm", "setting": "[1]; Anderson Cascade", "result": "over 70%"}, {"measurement": "Cum. % <", "setting": "[1]; FILTER", "result": 0.00, "unit": "%"}, {"measurement": "Cum. % >", "setting": "[1]; FILTER", "result": 100.00, "unit": "%"}]}, {"substance": "Insulin: insulin, Humalog, 200 units/ml, 3 ml kwikpens", "values": [{"measurement": "ejected dose that is structurally unchanged", "setting": "[2]; aerosolized with test device", "result": 97.5, "unit": "%"}, {"measurement": "Peak 3 area, Avg.", "setting": "[2]; [5]", "result": 2.4905}, {"measurement": "Peak Area %, Peak 3", "setting": "[2]; control (Kwikpen insulin solution 200 U/ml, not aerosolized), SEC", "result": 0, "unit": "%"}, {"measurement": "ejected dose that forms a fragment", "setting": "[2]; fragment which elutes at ~25 minutes", "result": 2.5, "unit": "%"}]}, {"substance": "adalimumab", "values": [{"measurement": "change in the electrophoretic mobility (molecular weight) of post-aerosol active agent versus control", "setting": "[3]", "result": "negligible change in the electrophoretic mobility"}]}, {"substance": "bevacizumab", "values": [{"measurement": "change in the electrophoretic mobility (molecular weight) of post-aerosol active agent versus control", "setting": "[3]", "result": "negligible change in the electrophoretic mobility"}]}, {"substance": "etanercept [Enbrel]", "values": [{"measurement": "Peak 4 area, Avg.", "setting": "[4]; [5]", "result": 0.3545}, {"measurement": "Peak 5 area, Avg.", "setting": "[4]; [5]", "result": 4.2755}, {"measurement": "Peak Area %, Peak 4", "setting": "[4]; [6]", "result": 0, "unit": "%"}, {"measurement": "Peak Area %, Peak 5", "setting": "[4]; [6]", "result": 0, "unit": "%"}, {"measurement": "dose that leads to formation of molecular fragments", "setting": "[4]; fragments with elution times of 13 and 25 minutes", "result": 4.6, "unit": "%"}, {"measurement": "change in the electrophoretic mobility (molecular weight) of post-aerosol active agent versus control", "setting": "[3]", "result": "negligible change in the electrophoretic mobility"}]}]}
